Source: patent US20220025021A1 (BETH ISRAEL DEACONESS MEDICAL CENTER, published 2022)
Where a chain is given by its changes, count along the chain named.

B1: MS-97 (antibody)
VH: not shown
VL: DFVLTQSPLSLSVTPGEPASISCKSSHSLIHGDRNNYLAWYVQKPGRSPQLLIYLASSRASGVPDRFSGSGSDKDFTLKISRVETEDVGTYYCMQGRESPWTFGQGTKVDIKRTVAAPSVFIFPPSDEQLKSGTASVVCLLNNFYPREAKVQWKVDNALQSGNSQESVTEQDSKDSTYSLSSTLTLSKADYEKHKVYACEVTHQGLSSPVTKSFNRGEC
B2: MS-104 (antibody)
VH: not shown
VL: B1 VL with F2I, P18S, D73G
B3: MS-109 (antibody)
VH: not shown
VL: B1 VL with D73G
B4: MS-101 (antibody)
VH: not shown
VL: B1 VL with L9H, T85A
B5: MS-111 (antibody)
VH: not shown
VL: B1 VL with P18S, D73G, T85A
B6: MS-107 (antibody)
VH: not shown
VL: B1 VL with F2I, L9H, T85A
B7: MS-98 (antibody)
VH: not shown
VL: B1 VL with P18S, D73G
B8: MS-102 (antibody)
VH: not shown
VL: B1 VL with L9H, P18S, D73G, T85A
B9: MS-99 (antibody)
VH: not shown
VL: B1 VL with P18S, T85A
B10: MS-103 (antibody)
VH: not shown
VL: B1 VL with F2I
B11: MS-110 (antibody)
VH: not shown
VL: B1 VL with T85A
B12: MS-105 (antibody)
VH: not shown
VL: B1 VL with F2I, P18S, T85A
B13: MS-106 (antibody)
VH: not shown
VL: B1 VL with F2I, L9H, D73G
B14: MS-108 (antibody)
VH: not shown
VL: B1 VL with F2I, L9H, P18S, D73G, T85A
B15: MS-100 (antibody)
VH: not shown
VL: B1 VL with L9H, D73G

Legend:
Assay in all cases: cell-based or functional assay
[1] = molecular target: HIV-1 envelope glycoprotein of pseudovirus SC422661.8 (HIV-1)
[2] = molecular target: HIV-1 envelope glycoprotein of pseudovirus RHPA4259.7 (HIV-1)
[3] = molecular target: HIV-1 envelope glycoprotein of pseudovirus DU172.17 (HIV-1)
[4] = molecular target: HIV-1 envelope glycoprotein of pseudovirus BB1012-11.TC21 (HIV-1)
[5] = molecular target: HIV-1 envelope glycoprotein of pseudovirus CNE52 (HIV-1)
[6] = molecular target: HIV-1 envelope glycoprotein of pseudovirus 0260.v5.c36 (HIV-1)

Row | Binder | IC50 (neutralization in TZM.bl cells) [1] | IC80 (neutralization in TZM.bl cells) [1] | IC50 (neutralization in TZM.bl cells) [2] | IC80 (neutralization in TZM.bl cells) [2] | IC50 (neutralization in TZM.bl cells) [3] | IC80 (neutralization in TZM.bl cells) [3] | IC50 (neutralization in TZM.bl cells) [4] | IC80 (neutralization in TZM.bl cells) [4] | IC50 (neutralization in TZM.bl cells) [5] | IC80 (neutralization in TZM.bl cells) [5] | IC50 (neutralization in TZM.bl cells) [6] | IC80 (neutralization in TZM.bl cells) [6]
1 | B1 | 0.311 µg/mL | 2.09 µg/mL | 0.183 µg/mL | 0.824 µg/mL | 2.21 µg/mL | 7.54 µg/mL | 0.04 µg/mL | 0.13 µg/mL | 0.214 µg/mL | 1.62 µg/mL | 0.028 µg/mL | 0.096 µg/mL
2 | B2 | 0.277 µg/mL | 1.52 µg/mL | 0.227 µg/mL | 1.02 µg/mL | 2.58 µg/mL | 9.41 µg/mL | 0.032 µg/mL | 0.137 µg/mL | 0.509 µg/mL | 6.48 µg/mL | 0.024 µg/mL | 0.084 µg/mL
3 | B3 | 0.233 µg/mL | 1.75 µg/mL | 0.182 µg/mL | 0.794 µg/mL | 1.14 µg/mL | 8.76 µg/mL | 0.021 µg/mL | 0.087 µg/mL | 0.206 µg/mL | 1.95 µg/mL | 0.027 µg/mL | 0.089 µg/mL
4 | B4 | 0.251 µg/mL | 1.88 µg/mL | 0.227 µg/mL | 0.816 µg/mL | 2.41 µg/mL | 6.88 µg/mL | 0.037 µg/mL | 0.121 µg/mL | 0.145 µg/mL | 1.23 µg/mL | 0.025 µg/mL | 0.069 µg/mL
5 | B5 | 0.285 µg/mL | 1.03 µg/mL | 0.178 µg/mL | 0.802 µg/mL | 1.76 µg/mL | 6.27 µg/mL | 0.029 µg/mL | 0.093 µg/mL | 0.22 µg/mL | 1.31 µg/mL | 0.024 µg/mL | 0.066 µg/mL
6 | B6 | 0.362 µg/mL | 2.07 µg/mL | 0.219 µg/mL | 0.949 µg/mL | 2.58 µg/mL | 13.9 µg/mL | 0.035 µg/mL | 0.111 µg/mL | 0.389 µg/mL | 5.29 µg/mL | 0.034 µg/mL | 0.109 µg/mL
7 | B7 | 0.301 µg/mL | 2.14 µg/mL | 0.146 µg/mL | 0.676 µg/mL | 1.44 µg/mL | 6.33 µg/mL | 0.025 µg/mL | 0.114 µg/mL | 0.237 µg/mL | 1.91 µg/mL | 0.019 µg/mL | 0.068 µg/mL
8 | B8 | 0.17 µg/mL | 1.21 µg/mL | 0.178 µg/mL | 0.649 µg/mL | 1.16 µg/mL | 5.91 µg/mL | 0.031 µg/mL | 0.1 µg/mL | 0.211 µg/mL | 1.87 µg/mL | 0.019 µg/mL | 0.053 µg/mL
9 | B9 | 0.294 µg/mL | 1.46 µg/mL | 0.257 µg/mL | 0.718 µg/mL | 1.95 µg/mL | 7.14 µg/mL | 0.032 µg/mL | 0.084 µg/mL | 0.219 µg/mL | 1.8 µg/mL | 0.024 µg/mL | 0.087 µg/mL
10 | B10 | 0.408 µg/mL | 1.99 µg/mL | 0.29 µg/mL | 1.33 µg/mL | 2.68 µg/mL | 10.2 µg/mL | 0.046 µg/mL | 0.155 µg/mL | 0.432 µg/mL | 4.18 µg/mL | 0.03 µg/mL | 0.104 µg/mL
11 | B11 | 0.243 µg/mL | 1.19 µg/mL | 0.18 µg/mL | 0.817 µg/mL | 0.847 µg/mL | 7.3 µg/mL | 0.033 µg/mL | 0.104 µg/mL | 0.21 µg/mL | 1.31 µg/mL | 0.026 µg/mL | 0.088 µg/mL
12 | B12 | 0.44 µg/mL | 3.51 µg/mL | 0.27 µg/mL | 1.25 µg/mL | 3.06 µg/mL | 11.5 µg/mL | 0.038 µg/mL | 0.124 µg/mL | 0.441 µg/mL | 5.04 µg/mL | 0.032 µg/mL | 0.11 µg/mL
13 | B13 | 0.201 µg/mL | 1.07 µg/mL | 0.143 µg/mL | 0.72 µg/mL | 1.49 µg/mL | 8.04 µg/mL | 0.031 µg/mL | 0.132 µg/mL | 0.42 µg/mL | 4.31 µg/mL | 0.018 µg/mL | 0.066 µg/mL
14 | B14 | 0.148 µg/mL | 1.25 µg/mL | 0.178 µg/mL | 1.1 µg/mL | 1.71 µg/mL | 13.6 µg/mL | 0.027 µg/mL | 0.11 µg/mL | 0.265 µg/mL | 3.5 µg/mL | 0.028 µg/mL | 0.088 µg/mL
15 | B15 | 0.184 µg/mL | 1.31 µg/mL | 0.142 µg/mL | 0.694 µg/mL | 1.56 µg/mL | 5.25 µg/mL | 0.029 µg/mL | 0.095 µg/mL | 0.147 µg/mL | 2.02 µg/mL | 0.019 µg/mL | 0.053 µg/mL
